± gives the standard error. This sample holds only a part of the variants without activity.
B1: glmS ribozyme (parent)
chain: AUAAAAGCGCCAGAACUACAGAAAUGUAGUUGACGAGGAGGAGGUUUAUCGAAUUUUCGGCGGAUGCCUCCAAA

Columns and labels:
Conditions in all cases: with glucosamine-6-phosphate
[1] = variants of: B1; assay: self-cleavage kobs at 640 uM GlcN6P; higher = faster cleavage; RNA array
Method in brief: (§1)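 Glucosamine-6-phosphate, from 40 μM to 10 mM in HEPES/KCl/Mg(OAc)2 buffer, was flowed over sequenced MiSeq chips carrying barcoded ribozyme variants transcribed in situ by E. coli RNA polymerase. A hybridised Cy3 probe tracked the variants at 37 °C as tiles were imaged over ~14 h. kobs, kcat and KM were obtained by fitting normalised per-tile medians to exponential decays and then applying weighted Michaelis–Menten fits across concentrations.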

[2] = variants of: B1; assay: self-cleavage kobs at 2500 uM GlcN6P; higher = faster cleavage; RNA array
Method in brief: as §1

[3] = variants of: B1; assay: self-cleavage kobs at 10000 uM GlcN6P; higher = faster cleavage; RNA array
Method in brief: as §1

## A14U U30G U69G C71G
[1]
  self-cleavage kobs at 640 uM GlcN6P: 0.000132 ± 4.4e-05 s⁻¹
[2]
  self-cleavage kobs at 2500 uM GlcN6P: 0.00026 ± 5.9e-05 s⁻¹

## G35C G41A U49A C58G C71U
[1]
  self-cleavage kobs at 640 uM GlcN6P: < 1e-05 s⁻¹

## A6C C16U G38U U47C G63A
[1]
  self-cleavage kobs at 640 uM GlcN6P: < 1e-05 s⁻¹
[2]
  self-cleavage kobs at 2500 uM GlcN6P: < 1e-05 s⁻¹

## A28C
[1]
  self-cleavage kobs at 640 uM GlcN6P: 0.0103 ± 0.0026 s⁻¹
[3]
  self-cleavage kobs at 10000 uM GlcN6P: 0.0679 ± 0.022 s⁻¹

## G13A U45C G66A
[1]
  self-cleavage kobs at 640 uM GlcN6P: 0.000124 ± 3e-05 s⁻¹
[2]
  self-cleavage kobs at 2500 uM GlcN6P: 9.89e-05 ± 2.4e-05 s⁻¹
[3]
  self-cleavage kobs at 10000 uM GlcN6P: 0.000343 ± 0.00011 s⁻¹

## U69C C70G
[1]
  self-cleavage kobs at 640 uM GlcN6P: 4.82e-05 ± 1.6e-05 s⁻¹

## C10A U47A C70G
[1]
  self-cleavage kobs at 640 uM GlcN6P: 0.000288 ± 0.00012 s⁻¹

## A14G G35A U45G G66U
[1]
  self-cleavage kobs at 640 uM GlcN6P: < 1e-05 s⁻¹
[2]
  self-cleavage kobs at 2500 uM GlcN6P: < 1e-05 s⁻¹

## A12U C50U
[1]
  self-cleavage kobs at 640 uM GlcN6P: 4.86e-05 ± 1.1e-05 s⁻¹
[2]
  self-cleavage kobs at 2500 uM GlcN6P: 9.52e-05 ± 1.7e-05 s⁻¹
[3]
  self-cleavage kobs at 10000 uM GlcN6P: 0.00036 ± 4.5e-05 s⁻¹

## A14G C16A G62C
[1]
  self-cleavage kobs at 640 uM GlcN6P: < 1e-05 s⁻¹

## A6C G35U C71A
[1]
  self-cleavage kobs at 640 uM GlcN6P: < 1e-05 s⁻¹
[2]
  self-cleavage kobs at 2500 uM GlcN6P: < 1e-05 s⁻¹

## C11U A12G C34A
[1]
  self-cleavage kobs at 640 uM GlcN6P: < 1e-05 s⁻¹

## U2C G32C G60U G63C
[1]
  self-cleavage kobs at 640 uM GlcN6P: < 1e-05 s⁻¹

## U47C G59U
[1]
  self-cleavage kobs at 640 uM GlcN6P: < 1e-05 s⁻¹

## A6C G38A C50G C67U
[1]
  self-cleavage kobs at 640 uM GlcN6P: 0.000113 ± 4.8e-05 s⁻¹
[2]
  self-cleavage kobs at 2500 uM GlcN6P: 7.23e-05 ± 1.8e-05 s⁻¹
[3]
  self-cleavage kobs at 10000 uM GlcN6P: 4.13e-05 ± 1.3e-05 s⁻¹

## G9C G40A G66U C68G
[1]
  self-cleavage kobs at 640 uM GlcN6P: < 1e-05 s⁻¹

## G13U C50A U69G
[1]
  self-cleavage kobs at 640 uM GlcN6P: 0.000105 ± 3.4e-05 s⁻¹
[2]
  self-cleavage kobs at 2500 uM GlcN6P: 5.37e-05 ± 1.8e-05 s⁻¹

## A12U A14G U30G A33G G66A
[1]
  self-cleavage kobs at 640 uM GlcN6P: < 1e-05 s⁻¹
[2]
  self-cleavage kobs at 2500 uM GlcN6P: < 1e-05 s⁻¹

## G13U U55G U56C
[1]
  self-cleavage kobs at 640 uM GlcN6P: 7.76e-05 ± 2.4e-05 s⁻¹
[2]
  self-cleavage kobs at 2500 uM GlcN6P: 0.000112 ± 2.5e-05 s⁻¹

## C58U C61G C67U
[1]
  self-cleavage kobs at 640 uM GlcN6P: 7.86e-05 ± 3.1e-05 s⁻¹

## A39U U45G A52G C70A
[1]
  self-cleavage kobs at 640 uM GlcN6P: < 1e-05 s⁻¹

## C16A G60U U69G
[1]
  self-cleavage kobs at 640 uM GlcN6P: < 1e-05 s⁻¹

## U31A A52G U69G
[1]
  self-cleavage kobs at 640 uM GlcN6P: 7.54e-05 ± 3.6e-05 s⁻¹
[2]
  self-cleavage kobs at 2500 uM GlcN6P: 7.91e-05 ± 2.3e-05 s⁻¹

## C11U G38C C50U A52C
[1]
  self-cleavage kobs at 640 uM GlcN6P: < 1e-05 s⁻¹

## G7U A14C G37C
[1]
  self-cleavage kobs at 640 uM GlcN6P: < 1e-05 s⁻¹
[2]
  self-cleavage kobs at 2500 uM GlcN6P: < 1e-05 s⁻¹

## U47A C61A C67G C71A
[1]
  self-cleavage kobs at 640 uM GlcN6P: < 1e-05 s⁻¹
[2]
  self-cleavage kobs at 2500 uM GlcN6P: < 1e-05 s⁻¹

## A33U A48C G63A
[1]
  self-cleavage kobs at 640 uM GlcN6P: < 1e-05 s⁻¹
[2]
  self-cleavage kobs at 2500 uM GlcN6P: < 1e-05 s⁻¹

## G7U U30A G51A
[1]
  self-cleavage kobs at 640 uM GlcN6P: < 1e-05 s⁻¹

## A14G A15U A48U U69C
[1]
  self-cleavage kobs at 640 uM GlcN6P: 6.32e-05 ± 2.6e-05 s⁻¹
[3]
  self-cleavage kobs at 10000 uM GlcN6P: 7.49e-05 ± 2e-05 s⁻¹

## G38C G44U G51C A52C C71U
[1]
  self-cleavage kobs at 640 uM GlcN6P: < 1e-05 s⁻¹

## A6C C8G A48G G60U C68U
[1]
  self-cleavage kobs at 640 uM GlcN6P: < 1e-05 s⁻¹
[2]
  self-cleavage kobs at 2500 uM GlcN6P: < 1e-05 s⁻¹

## A39U A48U U55C G59U
[1]
  self-cleavage kobs at 640 uM GlcN6P: < 1e-05 s⁻¹
[2]
  self-cleavage kobs at 2500 uM GlcN6P: < 1e-05 s⁻¹

## C10A A12U C67G
[1]
  self-cleavage kobs at 640 uM GlcN6P: 8.71e-05 ± 3.5e-05 s⁻¹

## A15C G44C U56C
[1]
  self-cleavage kobs at 640 uM GlcN6P: < 1e-05 s⁻¹

## C8A G9A G13U
[1]
  self-cleavage kobs at 640 uM GlcN6P: < 1e-05 s⁻¹

## C10U G13A U45G U49C
[1]
  self-cleavage kobs at 640 uM GlcN6P: < 1e-05 s⁻¹

## G32A G41A C50U
[1]
  self-cleavage kobs at 640 uM GlcN6P: < 1e-05 s⁻¹
[2]
  self-cleavage kobs at 2500 uM GlcN6P: < 1e-05 s⁻¹

## C50U C61A A64U C67G
[1]
  self-cleavage kobs at 640 uM GlcN6P: 8.84e-05 ± 4.2e-05 s⁻¹
[2]
  self-cleavage kobs at 2500 uM GlcN6P: 9.68e-05 ± 4.1e-05 s⁻¹

## C58G G62A G63C C71A
[1]
  self-cleavage kobs at 640 uM GlcN6P: 5.92e-05 ± 2.4e-05 s⁻¹

## G40C U65G
[1]
  self-cleavage kobs at 640 uM GlcN6P: 9.16e-05 ± 3.6e-05 s⁻¹
[2]
  self-cleavage kobs at 2500 uM GlcN6P: 0.00036 ± 0.00012 s⁻¹
[3]
  self-cleavage kobs at 10000 uM GlcN6P: 0.000854 ± 0.00025 s⁻¹

## G40A A42G G51U U57A U69C
[1]
  self-cleavage kobs at 640 uM GlcN6P: < 1e-05 s⁻¹

## C8G A14U A42G
[1]
  self-cleavage kobs at 640 uM GlcN6P: < 1e-05 s⁻¹

## C11G C58G C70U
[1]
  self-cleavage kobs at 640 uM GlcN6P: 8.61e-05 ± 2.4e-05 s⁻¹

## G7C C8A U30C A33C
[1]
  self-cleavage kobs at 640 uM GlcN6P: < 1e-05 s⁻¹
[2]
  self-cleavage kobs at 2500 uM GlcN6P: < 1e-05 s⁻¹
[3]
  self-cleavage kobs at 10000 uM GlcN6P: < 1e-05 s⁻¹

## C16A A36G U65G C71U
[1]
  self-cleavage kobs at 640 uM GlcN6P: < 1e-05 s⁻¹

## A14U G44U U54A G59C C68U
[1]
  self-cleavage kobs at 640 uM GlcN6P: < 1e-05 s⁻¹
[2]
  self-cleavage kobs at 2500 uM GlcN6P: < 1e-05 s⁻¹

## A39G U47G G59C
[1]
  self-cleavage kobs at 640 uM GlcN6P: < 1e-05 s⁻¹

## U46G A53G C70A
[1]
  self-cleavage kobs at 640 uM GlcN6P: 0.000507 ± 0.0001 s⁻¹

## C10A G35C C70U
[1]
  self-cleavage kobs at 640 uM GlcN6P: < 1e-05 s⁻¹

## C10A U46C U54G
[1]
  self-cleavage kobs at 640 uM GlcN6P: < 1e-05 s⁻¹

## C11U A12C C70G
[1]
  self-cleavage kobs at 640 uM GlcN6P: 0.000165 ± 6.8e-05 s⁻¹

## A6C A39G U57G
[1]
  self-cleavage kobs at 640 uM GlcN6P: < 1e-05 s⁻¹
[2]
  self-cleavage kobs at 2500 uM GlcN6P: < 1e-05 s⁻¹

## A14G G35U A52U
[1]
  self-cleavage kobs at 640 uM GlcN6P: < 1e-05 s⁻¹

## C10A C16A A36C A42G U46A U54C U56G G63U
[1]
  self-cleavage kobs at 640 uM GlcN6P: < 1e-05 s⁻¹
[3]
  self-cleavage kobs at 10000 uM GlcN6P: < 1e-05 s⁻¹

## G29A C50U C68A
[1]
  self-cleavage kobs at 640 uM GlcN6P: 4.21e-05 ± 1.6e-05 s⁻¹

## C50G A53U A64G
[1]
  self-cleavage kobs at 640 uM GlcN6P: < 1e-05 s⁻¹

## U30G A39U U45G
[1]
  self-cleavage kobs at 640 uM GlcN6P: 0.000324 ± 5.9e-05 s⁻¹
[2]
  self-cleavage kobs at 2500 uM GlcN6P: 0.00055 ± 0.0001 s⁻¹
[3]
  self-cleavage kobs at 10000 uM GlcN6P: 0.0014 ± 0.00018 s⁻¹

## G40U U46G U47G U55A G63U
[1]
  self-cleavage kobs at 640 uM GlcN6P: < 1e-05 s⁻¹
[2]
  self-cleavage kobs at 2500 uM GlcN6P: < 1e-05 s⁻¹

## C11U C16U C71G
[1]
  self-cleavage kobs at 640 uM GlcN6P: 6.83e-05 ± 1.8e-05 s⁻¹
[2]
  self-cleavage kobs at 2500 uM GlcN6P: 0.000127 ± 3.7e-05 s⁻¹

## G13U A39G U55G
[1]
  self-cleavage kobs at 640 uM GlcN6P: 0.000281 ± 8e-05 s⁻¹
[2]
  self-cleavage kobs at 2500 uM GlcN6P: 0.000683 ± 0.00022 s⁻¹
[3]
  self-cleavage kobs at 10000 uM GlcN6P: 0.0028 ± 0.00059 s⁻¹

## G7C G59C G66C
[1]
  self-cleavage kobs at 640 uM GlcN6P: < 1e-05 s⁻¹
[3]
  self-cleavage kobs at 10000 uM GlcN6P: < 1e-05 s⁻¹

## A33U U45G U47A C67A C68G
[1]
  self-cleavage kobs at 640 uM GlcN6P: < 1e-05 s⁻¹
[2]
  self-cleavage kobs at 2500 uM GlcN6P: < 1e-05 s⁻¹

## U47A G66C
[1]
  self-cleavage kobs at 640 uM GlcN6P: 0.000329 ± 7.2e-05 s⁻¹
[2]
  self-cleavage kobs at 2500 uM GlcN6P: 0.000448 ± 0.00013 s⁻¹

## G7C A64C
[1]
  self-cleavage kobs at 640 uM GlcN6P: < 1e-05 s⁻¹

## C8U C16A G35C A36U C71G
[1]
  self-cleavage kobs at 640 uM GlcN6P: < 1e-05 s⁻¹
[2]
  self-cleavage kobs at 2500 uM GlcN6P: < 1e-05 s⁻¹

From the supplement of paper PMC7125110
